Laboratory results from the nanobody polyreactivity screen of Harvey et al. (2022).

Assay: yeast display, Sf9 membrane polyspecificity reagent, FACS + sequencing; frameworks hold sequencing errors
Procedure, shortened: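 Nanobodies from a synthetic yeast display library (Saccharomyces cerevisiae BJ5465), induced 36–48 hours with galactose, were stained 1 hour at 4 °C with 10% biotinylated, detergent-solubilized Sf9 membrane reagent, enriched on streptavidin microbeads, then FACS-sorted. Anti-HA (expression) and streptavidin (reagent binding) fluorescence set low and high (top ~1%) gates. Polyreactivity labels come from the gate of origin. Genes were colony-PCR amplified, MiSeq 2 × 250 sequenced and filtered by CDR length.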

Sequence	polyreactivity (PSR sort gate)
EEELVESGGGLVQAGGSLRLSCAASGIIFGYYAMGWYRQAPGKERELVAAITRSGSSTYYADSVKGRFTISRDNAKNTVYLQMNSLKPEDTAVVSCAADNFYQAYGYWGQGTQVTVSS	low polyreactivity
EEELVESGGGLVQAGGSLRLSCAASGSIFQYNAMGWYRQAPGKDRELVAVISWSGDTYYADSVKGRFTISRDNAKNTVYLQMNSLKPEDTAVYYCNAVQYTFTSEYGYWGQGTQVTVSS	low polyreactivity
EEELVESGGGLVQAGGSSLRLSCAASGFIFVSNAMGWYRQAPGKERELVASIRWSDGSTFDADSVKGRFTNSRDNAKNTVYLQMNSLKPEDTAVYYCNAVYEHRRVGWVTIDYGYWGQGTQVTVSA	low polyreactivity
EEQLVESGGGLVQPGGSLRLSCAASVYIYSRYRMGWYRQAPGKGREFVAAISGGSSPNYADCVKGRFTISRDNSKNTVYLQMNSLRAEDTAVYYCAAYKIDSDPRVYWGQGTQVTVSS	low polyreactivity
EVQLVESGGGLVHAGGSLRLICAASGFTFTGYTMGWYRQAPGKERELVATISGSGGNTYYADSVKGRFTISRDNAKNTVYLQINSVKPEDTAVYYCARLRSGPRVLYYYWGQGTQVTVSS	low polyreactivity
EVQLVESGGGLVQAGGSLRLSCAASGFTFGVYARGWYRQAPGKERELVAAITWGDGSTYYADSVKGRFTISRDNAKNTVYLQMNSLKPEDTAVYYCNAVTRRHKYYYWGQGTQVTVSS	high polyreactivity
EVQLVESGGGLVQAGGSLRLSCAASGFTFSYNAMGWYRQAPGKERELVAAIDWGGGSTYADSVKGRFTISRDNAKNTVYLQMNSLKPEDTAVYYCAAYIPSSGRNPEIGVEYDYWGQGTQVTVSS	low polyreactivity
EVQLVESGGGLVQAGGSLRLSCAAYGSTFSTYAMGWYRQAPGKERELVAAISFGGGSTYADSVKGRFTISRDNAKNTVYLQMNSLKPEDTAVYYCNTDLYLYGWYPRDVQQYAGGDYWGQGTQVTVSS	low polyreactivity
EVQLVESGGGLVQPGGSLRLSCAASGYIYRRYRMGWYRQAPGKGREFVAAISGGSSTNYADSVTGRFTISRDNSKNTVFLQMNSLRAEDTAVYYCAAYKIDSYPRVYWGQGTQVTVSS	low polyreactivity
FVQAGGSLRLSCAASGFIFGVYDMGWYRQAPGKERELVAAIDSVGSTYYADSVKGRFTISRDNAKNTVYLQMNSLNPEDTAVYYCAKDGSYQAYGYWGQGTQVTVSS	low polyreactivity
HDQHVESAGGLVQAGGSLRLSCAASGFILRWYAMGWYRQAPGKERELVAAISWSGGSTYYADSVKGRFTISRDNAKNTVYLQMNSEKPEVTAVYYCNAVNYRNKYDYWGQGTQVTVSS	high polyreactivity
HEQLQESGGGLVQAVGSLRLSCAASGHISRSSTMGWYRQAPGKERELVTAITRGTNTNYADSVKGRFTISRDNAKNSEYLQMNSLKPEDTAVYYCAAYGVLKPSRGDAVFHRYWGQGTQVTVSR	low polyreactivity
HEQLVESGGGLVQAGGSLRLICAASGRIFPRYAMGRYRQAPGKEMELVAAITKRDGSTYYADSVKGRFTISRDNAKNTVYLQMNSLKPEDSAVYYCATRRLYSKSWYYYWGQGTQVTVSS	high polyreactivity
HFQLVESGGRLVQAGGSIRLSCAASGRIFRPNAMGWYRQAPRKERQLVAAISYSGATTYYADSVKGRFTISRDNEKNTVYLQMNSLKPEDTAVYYCAACGTSAKEFGYWGQGTQVTVSS	low polyreactivity
HVELVEAGGGVVQAGGSLRLSCAASGRIFRYYVMGWYRPAPGKEREFVASISGRGASTYYADSVKGRFTISRDNAKNTVYIKRNSLKPEDTAVYYCNADVWLLSYVPEYDYWGQGTQVTVSS	low polyreactivity
HVHLVESGGGLVQAGGSLRLSCAASARTFWRYAMGRKRQAPGKERELVAAISVSGGTTYYADAVKGRFTISRDNAQNTVYLQMISLKPEATAVYYCAARYWHSYGYWGQGTQVTVSS	high polyreactivity
HVKLQESGDGLVQAGGSLRLSSAPSGTIYSDYGMGGSRQAPGKERELLAGISDGCNTNYTDSVKGRFTISRDNAHRVSADEQPETGGYRGVLLRGSERWLLFYVYWGQGTQVTVSS	high polyreactivity
HVPLVESGGGLVQAGGSLRLSCAASGSTFSVNVLGWYRLAAGKERELVAAITQAGGSTYYADSVKGRFSISRDTAKNTVYLQMNSLKPEDTAGYYCAVEKWSVYSFFLEGADYWGQGTQLTVSS	low polyreactivity
HVQIVESGGGLVQAGGRLRLSCAASGSTFHDYAMGWYRQATGQERELVAAISNSGGSTYYADSVKARFTISRDNAKNTVYLQMKSQKPEYTAVYYCAADGRWYWDYEYWGQGTQVTVSS	low polyreactivity
HVQLEDSGGGLVQAGGRLRITCAASGRSSETNDMGWYRQAPGKERELVAAISSSGGSTYYADSVKGRFTISRDNAKNTVYLQMNSLQPEDTAVYYCYAVYYRTVLKIGVYEYDYWGQGTQVTVSS	low polyreactivity
HVQLEETGRGLVQAGGSLRISCAASGRIFEYYAMGWYRQAPGKDRELVAAITSSTGSTSYADSVKGRFTISRDNEKNTVYLQMNSLKPEDTAVYYCAADVWFFSKLSRYDYWGQGTQVTVSS	low polyreactivity
HVQLGESGGGLVQAGGSLRLSCAASGFIFTAYVMGWYRQAPGKERELVAAISRSGGSTYYADSVKGRFTISRDNAKHTVYLQMNSLKPEDTAVYYCAKLRRDARYDYWGQGTQVTVSS	high polyreactivity

Sequence	polyreactivity (PSR sort gate)
HVQLQEIGGGLVQAGDSQRLSCAASGNIFRFTDMGRYRQAPGKERELVAAINAGSTTYYAASVKGRFTISRDNAKNTVYLQMNSLKPEDTAVYYCNALYSYKYGRKYDYWGQGTQVTVSS	high polyreactivity
HVQLQESAGGLVQAGGSLRLSCAASGTISSREAMGWYSQAPGKERDFVATIASGTTTYYADSVKGSFTISRDNAENTVYLQTNTLKPEDTAVYYCAAPTIQIYPFYYWGHGTQVTVSS	high polyreactivity
HVQLQESGGGLLQAGGSLRLSCAASGSIFQATYMGWYRQATGKEREFVASITYGSITNYADSVKGRFTIGRDNAKDTLYLQMNSLKPEFTAVYYCAVARHYIPAFHYWGQGTQVTVSS	low polyreactivity
HVQLQESGGGLVQAGGSLRLSCAASGSIFQATYMGWYRPAPGKEREFVASITYGSITNYADSVKGRFTIGRDNAKDTLYLQMNSLKPEDTAVYYCAAVGRRRTTVGRYVRMDYWGQGTQVTVSS	low polyreactivity
HVQLVESGGGLVQAAGSLRLSCAASGRIFSAYAMGWYRQAPGKEREFVAAITQSGGSTYYAESVKGRFTISRDNAKNTVYLQMNSLKPEDTAVYYCAAGDAYYTEALPFGEYDYWGQGTQVTVSS	low polyreactivity
HVQLVESGGGLVQAGGRLRLSCAASASIFDSNAMGWYRQAPGKERELVADIRGIGGSTYYADSVKGRFTISRDNAKNTVYLQMNSLKPEDTAVYYCNTSTLGGYYWGQGTQVTVSS	low polyreactivity
HVQLVESGGGLVQAGGSLRISCAASGITFYAYAMGWYRQAPGKERELVAAITRRGGSTRYADSVKGRFTITRDNAKNTVYLQMNSLKPEDTAVYYCNARSGRYFLGYGYWGQGTQVTVSS	high polyreactivity
HVQLVESGGGLVQAGGSLRLSCAASGFIFRYYAMGWYRQAPGKERELVAAISWSGTPTFYADSVKGRFTISRDNAKNTVYLQMNSLKPEDTAVYYCAAETTGYDSYIQYEYWGQGTQVTVSS	high polyreactivity
HVQLVESGGGLVQAGGSLRLSCAASGFTFGYYAMGWYRQAPGKERELVAAISSSGGSTYYADSVKGRFTISRDNAKNTVYLQMNSLKPEDTAVYFCAVVVFSRVYRYFTSDYWGQGTQVTVSS	high polyreactivity
HVQLVESGGGLVQAGGSLRLSCAASGIIFGAYALGWYRQAPGKERELVAAITYSSGSTYYADSVKGRFTISRDNAKNTVYLQMNSLKPEDTAVYYCAKTNFSQSSRYNYDYWGQGTQVTVSS	low polyreactivity
HVQLVESGGGLVQAGGSLRLSCAASGRIFGYNAMGWYRQAPGKEREFVATITYNDGSTYYADSVKGRFTMSRDNAKNTVYLQMNSLKPEDTAVYYCAADLIWTVYGWKYDYWGQGTHVTVSS	low polyreactivity
HVQLVESGGGLVQAGGSLRLSCAASGRIFRINVMGWCRQAPGKERELVAAISGRGGSTYYADSVKGRFTISRDNAQNTDYLQMNRLKPEDTAVYYFAARSPYRYYYWGQGTQVTVSS	high polyreactivity
HVQLVESGGGLVQAGGSLRLSCAASGRILSRNAMGRYRPAPGKERELVAAISISGGSTYYADSVKGRFTISRDNAKNTVYLQRNSLKPEDTAVYYCNTAYYGYRKYDYWGQGTQVTVSS	high polyreactivity
HVQLVESGGGLVQAGGSLRLSCAASGRTFLGNAMGWYRQAPGKERQLVAVITGSGARTYYADSEKGRFTISRDNAKNTVYLQMNSLKPEDTAVYYCAAAGFSGQYRSYYWGQGTQVTVSS	high polyreactivity
HVQLVESGGGLVQAGGSLRLSCAASGSIFSENTMGWYRQAPGKEWELVAAISWSGGSTNYADSVKGRFTISRDNAKNTVYLQMNSLKPEDTAVYYCAKDVGSADPTYYYWGQGTQVTVSS	low polyreactivity
HVQLVESGGGLVQAGGSLRLSCAASGSTFFKYGMGWNRQAPGKERELVASITSRTGSTYYADSVKGRFTISRDNAKNTVYLQMKSLKPEDTAVYYCNVRRGGGYRYGARTFIYGHWGEGTQVTVSS	high polyreactivity
HVQLVESGGGLVQAGGSLRLSCAASGSTFGQYTMGWYRQAPGKERELVATISSGGSTYYADSVKGRFTISRDNAKHTVYLQMNSLKPEDTAVYYCAARYWSIYDYWGQGTQVTVSS	low polyreactivity
HVQLVESGGGLVQAGGSLRLSCAASGSTFNINAMVWYRQAPGKERELFAAISWSGDITYYADSVKGRFTISRDNAKNTVYLLMISLKPEDTAVYYCNTDDPGNYWYAEYDYWGQGTQVTVSS	low polyreactivity
HVQLVESGGGLVQAGGSLRLSCAASGSTFNRYAMGWYRQAPGKERELVAAITERGGSTYYADSVKGRFTISRDNAKNTVYLQMNRLIPEDTAVYYCAARSKYYRSTPFVSDYWGQGTQVTVSS	high polyreactivity
HVQLVESGGGLVQAGGSLRLSCAASGSTFSRYAMGWYRQAPGKERELVAAISSSGGSTYYADSVKGRFTISRDNAKNTVYLQMNSLKPEDTAVYYCAARQYFFSSWRFDYWGQGTQVTVSS	high polyreactivity
HVQLVESGGGLVQAGGSLRLSCAASGSTLWYNAMGWNRQAPGKERELVAVITWTGGSTYYADSVKGRFTISRDNAKNTVYLQMNSLKPEDTAVYYCAVRWYFGNRYKYYYWGQGTQVTVSS	high polyreactivity
